{"source": "paper PMC3795040", "key": {"[1]": {"target": "mini-HA complex (HA70^D3–HA17–HA33) (Clostridium botulinum strain 62A (BoNT/A1-producing)) (UniProt Q45871)", "experiment": "[…], pH 7.6 with 100 mM NaCl; […]"}, "[2]": {"target": "HA70 of BoNT/A (full-length, residues M1–N626) (Clostridium botulinum strain 62A (BoNT/A1-producing))", "experiment": "AUC"}, "[3]": {"target": "HA complex (HA70–HA17–HA33), recombinant, reconstituted in vitro (Clostridium botulinum strain 62A (BoNT/A1-producing)) (UniProt Q45871)", "experiment": "[…], pH 7.6 with 100 mM NaCl; […]"}, "[4]": {"target": "HA33 (full-length, residues M1–P293), expressed alone (Clostridium botulinum strain 62A (BoNT/A1-producing)) (UniProt P0DPR0)", "experiment": "AUC"}}, "note": "pKd: −log10 of the molar value."}
{"substance": "mini-HA complex (HA70^D3–HA17–HA33) (from UniProt Q45871 1-293)", "values": [{"measurement": "pKd", "setting": "[1]", "result": 4.64}]}
{"substance": "HA70 of BoNT/A (full-length, residues M1–N626) (natural protein)", "values": [{"measurement": "stoichiometry N (HA70 chains in the oligomer)", "setting": "[2]", "result": 3}]}
{"substance": "HA complex (HA70–HA17–HA33), recombinant, reconstituted in vitro (from UniProt Q45871 1-293)", "values": [{"measurement": "pKd", "setting": "[3]", "result": 4.96}]}
{"substance": "HA33 (full-length, residues M1–P293), expressed alone (from UniProt P0DPR0 1-286) (natural protein)", "values": [{"measurement": "stoichiometry N", "setting": "[4]", "result": 2}]}
